{"source": "paper PMC12357932", "about": "(Nature Communications, 2025)", "key": {"[1]": {"target": "ExsF with the first 23 residues replaced by an N-terminal 6xHis tag (B. paranthracis)", "assay": "crystal structure"}, "crystal structure": {"target": "the molecule itself", "assay": "crystal structure"}}, "data": [{"molecule": "ExsF with the first 23 residues replaced by an N-terminal 6xHis tag (domain or fragment)", "values": [{"measurement": "stoichiometry N", "setting": "[1]", "value": 3}]}, {"molecule": "C-terminal domain of F-BclA (F-BclA-CTD; BTK_RS34675 residues 721-863) (domain or fragment) MHHHHHHSVGLTNYLYVFDTTNQSIAVGSSVTFNTNGPITGTALSHITGTGNIIINTLGTYVAEFQLQASRENQFSLELNGTPIPGGRFGTGSPHSINQGTAAFTVTVVPSTLTLINNTSSAGTITLSNSDGGSLTNVSASISIFQVG", "values": [{"measurement": "stoichiometry N", "setting": "crystal structure", "value": 3}]}]}
